4 compounds from PMC4084830 (Nature structural & molecular biology, 2013) can be followed below.

One assay addresses T1, glucokinase (GK) (Mus musculus, UniProt P52792).
T1 sequence (P52792 1-465): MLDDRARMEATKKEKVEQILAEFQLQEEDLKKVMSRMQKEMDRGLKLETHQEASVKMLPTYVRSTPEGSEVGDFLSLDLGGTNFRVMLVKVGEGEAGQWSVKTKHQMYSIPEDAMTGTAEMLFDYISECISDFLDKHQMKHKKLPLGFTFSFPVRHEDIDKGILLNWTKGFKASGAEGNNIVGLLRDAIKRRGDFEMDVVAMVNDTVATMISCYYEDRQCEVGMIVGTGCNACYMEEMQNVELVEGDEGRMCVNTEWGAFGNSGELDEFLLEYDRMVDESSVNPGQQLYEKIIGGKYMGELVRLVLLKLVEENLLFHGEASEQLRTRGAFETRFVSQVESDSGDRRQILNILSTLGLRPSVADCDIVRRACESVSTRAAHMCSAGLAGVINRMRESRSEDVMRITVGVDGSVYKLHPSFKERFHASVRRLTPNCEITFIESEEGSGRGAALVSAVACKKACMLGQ
The experiment in a line: Steady-state kinetics of recombinant wild-type mouse glucokinase. The assay is classed as biochemical. As to conditions: vs vehicle.

For assay [1], the target named is recombinant mouse glucokinase (GK) isoform 1 (mouse) (UniProt P52792).

As for `CS(=O)(=O)c1ccc([C@@H](CC2CCCC2)C(=O)Nc2nccs2)cc1` [RO0281675], the “effect on GK kinetic profile (in words)” value on glucokinase (GK) (5 μM BAD SAHBs and/or 3 μM RO0281675) was “no significant effect on the Hill coefficient”. In addition, the “increase in Vmax” value at glucokinase (GK) (5 μM BAD SAHB or 3 μM RO0281675) was “approximately 40%”.

On to BAD SAHBA (S118D) (peptide), for which, in assay [1], the GK Vmax (% of vehicle), G6PDH-coupled assay with 5 μM SAHB and 7.5 nM GK, 37 °C came out at 144 % veh.

Regarding BAD SAHBA (S118L) (peptide), in assay [1], the GK Vmax (% of vehicle), G6PDH-coupled assay with 5 μM SAHB and 7.5 nM GK, 37 °C was 89.6 % veh.

As for BAD SAHBA (S118pS) (peptide), in assay [1], the GK Vmax (% of vehicle), G6PDH-coupled assay with 5 μM SAHB and 7.5 nM GK, 37 °C turned out to be 129 % veh.
